Patent publication US20250277057A1 (OKLAHOMA MEDICAL RESEARCH FOUNDATION, published 2025)

Key:
[1] = target: T1, human activated protein C (human, UniProt P04070 43-197; P04070 212-461); assay: cell-based or functional assay
human protein C [2] = target: T2, human protein C (human, UniProt P04070 43-461); assay: ELISA on plate-coated HPC, OD450
T2 construct: Zymogen form, coated on ELISA plates; also called hPC; PC
Protocol: (§1) The binding abilities of the anti-aPC monoclonal antibodies to haPC/hPC were assayed by Elisa. […] 1. ELISA plates were coated with haPC/hPC (1 ug/mL in PBS), 100 μL/well, at 4° C. overnight. […] 2. The plates were washed 3 times with PBST (0.1% Tween 20), 200 μL/well. […] 3. The plates were blocked with 2% BSA (PBS solution), 200 μL/well, at room temperature for 1 hour. […] 4. The plates were washed 3 times with PBST (0.1% Tween 20), 200 μL/well. […] 5. The plates were incubated with anti-aPC monoclonal antibody as primary antibody (diluted from 10 μg/mL in 2% BSA), 100 μL/well, at room temperature for 1 hour. […] 6. The plates were washed 3 times with PBST (0.1% Tween 20), 200 μL/well. [0200] 7. The plates were incubated with anti-hIgG-Fc antibody-HRP (diluted 5000-fold in 2% BSA buffer) at room temperature for 1 hour. [0201] 8. The plates were washed 6 times with PBST (0.1% Tween 20), 200 μL/well. [0202] 9. The plates were incubated with a TMB substrate (prepared from solutions A and B at 1:1 (v/v)), 100 μL/well, away from light for 10 minutes. […] 10. The reaction was quenched with HCl (1 M), 100 μL/well, and OD450 was read.

[3] = target: T1, human activated protein C; assay: Octet BLI, antibody on Protein A sensor, huAPC 3.13-50 nM, 1:1 model, 25 C, pH 7.4
Protocol: Assay method: Octet analysis was carried out at 25° C. using a Protein A Octet biosensor in 1× Kinetics buffer. During the kinetics assay, the baseline step assay was run in 1× Kinetics buffer for 120 seconds, and then run for 240 seconds after the antibody was loaded to the biosensor. Next, the baseline 2 step assay was run in 1× Kinetics buffer for 120 seconds. […] The 1× Kinetics buffer was used as a blank control to show the natural dissociation of the antibody in the buffer. 10 mM glycine at pH 1.5 was used for the regeneration step. Octet data analysis software was used to calculate binding kinetics, and a 1:1 binding model was used for curve fitting.
The affinities of the mutant antibodies were assayed at pH 7.4.

[4] = target: T1, human activated protein C; assay: ELISA, plate coated with haPC 1 ug/mL, anti-hIgG-Fc-HRP
Protocol: as §1

human protein C [5] = target: T2, human protein C; assay: ELISA, plate coated with hPC 1 ug/mL, anti-hIgG-Fc-HRP
Protocol: as §1

| Binder | Mean clotting time (s), FIX-deficient plasma, APC-antibody concentration 0.5 ug/ml [1] [s] | Mean clotting time (s), FIX-deficient plasma, APC-antibody concentration 1 ug/ml [1] [s] | Mean clotting time (s), FIX-deficient plasma, APC-antibody concentration 5 ug/ml [1] [s] | Mean clotting time (s), FVIII-deficient plasma, APC-antibody concentration 0.5 ug/ml [1] [s] | Mean clotting time (s), FVIII-deficient plasma, APC-antibody concentration 1 ug/ml [1] [s] | Mean clotting time (s), FVIII-deficient plasma, APC-antibody concentration 5 ug/ml [1] [s] | binding result (human protein C [2]) | Kd [3] [nM] | koff [3] [s⁻¹] | kon [3] [M⁻¹ s⁻¹] | EC50 [4] [nM] | Span [4] | Span (human protein C [5]) |
| --- | --- | --- | --- | --- | --- | --- | --- | --- | --- | --- | --- | --- | --- |
| HAPC-14-1 (antibody, V domains shown, Whole IgG, backbone hIgG1; also called HPAC14-1) VH: EVQLVESGGGLVQPGGSLRLSCAASGFTFSFYYLNWVRQAPGKGLEWVGDIRLKSNNYEKHYAESVKGRFTISRDDSKSITYLQMNSLRAEDTAVYYCAREGDYFDYWGQGTTVTVSS VL: DIQLTQSPSSLSASVGDRVTITCRASESVDSFGATFMHWYQQKPGKAPKLLIYLASWLGSGVPSRFSGSGSGTDFTLTISSLQPEDFATYYCQQNNEDPYTFGQGTKLEIK | 219 | 195 | 171 | 327 | 222 | 166 | no binding (tested: 10^2 nM) | 3.83 | 0.00117 | 306000 | 0.114 | 2.11 | 0.023 |
| HAPC-14-2 (antibody, V domains shown, Whole IgG, backbone hIgG1; also called HPAC 14-2) VH: EVQLVESGGGLVQPGGSLRLSCAASGFTFSFYYLNWVRQAPGKGLEWVGDIRLKKNNYEKHYAESVKGRFTISRDDSKSITYLQMNSLRAEDTAVYYCAREGDYFDYWGQGTTVTVSS VL: DIQLTQSPSSLSASVGDRVTITCRASESVDSFGATFMHWYQQKPGKAPKLLIYLASWLESGVPSRFSGSGSGTDFTLTISSLQPEDFATYYCVQNNEDPYTFGQGTKLEIK | 233 | 211 | 143 | 358 | 196 | 159 | no binding (tested: 10^2 nM) | 3.78 | 0.00116 | 307000 | 0.111 | 1.77 | 0.0104 |
| HAPC-14-5 (antibody, V domains shown, Whole IgG, backbone hIgG1; also called HPAC 14-5) VH: EVQLVESGGGLVQPGGSLRLSCAASGFTFSFYYLNWVRQAPGKGLEWVGDIRLKKNNYEKHYAESVKGRFTISRDDSKSITYLQMNSLRAEDTAVYYCAREGDYFDYWGQGTTVTVSS VL: DIQLTQSPSSLSASVGDRVTITCRASESVDSFGATFMHWYQQKPGKAPKLLIYLASWLGSGVPSRFSGSGSGTDFTLTISSLQPEDFATYYCVQNNEDPYTFGQGTKLEIK | 197 | 188 | 166 | 224 | 200 | 171 | no binding (tested: 10^2 nM) | 2.83 | 0.000911 | 322000 | 0.0924 | 1.63 | ~0.0475 |
| HAPC-14-4 (antibody, V domains shown, Whole IgG, backbone hIgG1; also called HPAC 14-4) VH: EVQLVESGGGLVQPGGSLRLSCAASGFTFSFYYLNWVRQAPGKGLEWVGDIRLKSNNYEKHYAESVKGRFTISRDDSKSITYLQMNSLRAEDTAVYYCAREGDYFDYWGQGTTVTVSS VL: DIQLTQSPSSLSASVGDRVTITCRASESVDSFGATFMHWYQQKPGKAPKLLIYLASRLGSGVPSRFSGSGSGTDFTLTISSLQPEDFATYYCVQNNEDPYTFGQGTKLEIK | 220 | 194 | 176 | 221 | 184 | 158 | no binding (tested: 10^2 nM) | 4.06 | 0.00126 | 310000 | 0.0605 | 1.52 | 0.157 |
